# Measured values taken from article PMC1405818.
# B1: Mut1 SPR duplex (AE2042/AE2000) (dsDNA)
# DNA 1: GATTTAACTAAATAAATTTTAAAA
# DNA 2: TTTTAAAATTTATTTAGTTAA
# B2: Mut2 EMSA duplex (AE2001/AE2002) (dsDNA)
# DNA 1: TTAACGAGATAATTTTACAGA
# DNA 2: TCTGTAAAATTATCTCGTTAA
# B3: Mut2 SPR duplex (AE2043/AE2002) (dsDNA)
# DNA 1: GATTTAACGAGATAATTTTACAGA
# DNA 2: TCTGTAAAATTATCTCGTTAA
# B4: Mut1 EMSA duplex (AE1199/AE2000) (dsDNA)
# DNA 1: TTAACTAAATAAATTTTAAAA
# DNA 2: TTTTAAAATTTATTTAGTTAA
# B5: HSE EMSA duplex (AE1197/AE1198) (dsDNA)
# DNA 1: TTAACGAGAGAAGGTTCCAGA
# DNA 2: TCTGGAACCTTCTCTCGTTAA
# B6: HSE SPR duplex (AE2019/AE1198) (dsDNA)
# DNA 1: GATTTAACGAGAGAAGGTTCCAGA
# DNA 2: TCTGGAACCTTCTCTCGTTAA
# Assays:
# LEDGF/p75 wild type [1] = target: T1, LEDGF/p75 wild type (human, UniProt O75475 1-530); assay: SPR
# MutL5 = MutL5 (human, UniProt O75475 1-530, R194A;G195A;R196A); assay: SPR
# MutL4 = MutL4 (human, UniProt O75475 1-530, R180A;G181A;R182A); assay: SPR
# MutL3 = MutL3 (human, UniProt O75475 1-530, R180A;G181A;R182A;R194A;G195A;R196A); assay: SPR
# LEDGF/p75 wild type [2] = target: T1, LEDGF/p75 wild type; assay: EMSA
# LEDGF/p75 93-226 = LEDGF/p75 93-226 (human, UniProt O75475 93-226); assay: EMSA
# LEDGF/p75 wild type [3] = target: T1, LEDGF/p75 wild type; assay: SPR; remark: listed apart in the source
# [4] = target: LEDGF/p75 347-530 (IBD fragment) (human, UniProt O75475 347-530); assay: EMSA
# [5] = target: LEDGF/p75 1-116 (PWWP domain) (human, UniProt O75475 1-116); assay: EMSA
# LEDGF/p75 wild type [6] = target: T1, LEDGF/p75 wild type; assay: EMSA; remark: listed apart in the source
# T1 sequence (O75475 whole entry): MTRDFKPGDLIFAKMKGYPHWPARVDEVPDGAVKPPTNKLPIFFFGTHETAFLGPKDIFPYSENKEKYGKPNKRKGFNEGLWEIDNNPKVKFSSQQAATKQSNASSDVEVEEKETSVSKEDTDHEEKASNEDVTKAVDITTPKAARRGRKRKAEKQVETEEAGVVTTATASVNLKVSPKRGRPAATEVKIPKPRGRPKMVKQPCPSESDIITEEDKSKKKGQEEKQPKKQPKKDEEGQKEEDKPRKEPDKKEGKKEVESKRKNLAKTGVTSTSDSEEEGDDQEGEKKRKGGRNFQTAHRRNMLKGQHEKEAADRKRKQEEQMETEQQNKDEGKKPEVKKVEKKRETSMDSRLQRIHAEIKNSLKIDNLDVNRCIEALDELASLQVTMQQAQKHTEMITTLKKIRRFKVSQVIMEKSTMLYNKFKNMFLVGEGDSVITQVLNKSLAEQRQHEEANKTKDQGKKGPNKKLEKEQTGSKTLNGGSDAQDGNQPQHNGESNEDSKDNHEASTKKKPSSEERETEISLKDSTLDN
# LEDGF/p75 93-226, sequence (O75475 93-226): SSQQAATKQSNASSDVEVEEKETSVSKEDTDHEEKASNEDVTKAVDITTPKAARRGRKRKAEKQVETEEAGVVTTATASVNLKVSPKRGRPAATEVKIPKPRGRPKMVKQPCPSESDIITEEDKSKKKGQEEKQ
# LEDGF/p75 1-116 (PWWP domain), sequence (O75475 1-116): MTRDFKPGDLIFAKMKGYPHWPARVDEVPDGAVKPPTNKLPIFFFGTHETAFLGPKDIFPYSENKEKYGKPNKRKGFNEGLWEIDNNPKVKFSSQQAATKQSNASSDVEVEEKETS
# LEDGF/p75 347-530 (IBD fragment), sequence (O75475 347-530): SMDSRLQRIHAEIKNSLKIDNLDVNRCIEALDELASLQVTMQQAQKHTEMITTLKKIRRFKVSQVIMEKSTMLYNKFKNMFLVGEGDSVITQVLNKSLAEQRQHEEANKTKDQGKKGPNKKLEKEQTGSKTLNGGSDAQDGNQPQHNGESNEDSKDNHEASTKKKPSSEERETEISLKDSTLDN
# MutL3, sequence (O75475 whole entry R180A/G181A/R182A/R194A/G195A/R196A): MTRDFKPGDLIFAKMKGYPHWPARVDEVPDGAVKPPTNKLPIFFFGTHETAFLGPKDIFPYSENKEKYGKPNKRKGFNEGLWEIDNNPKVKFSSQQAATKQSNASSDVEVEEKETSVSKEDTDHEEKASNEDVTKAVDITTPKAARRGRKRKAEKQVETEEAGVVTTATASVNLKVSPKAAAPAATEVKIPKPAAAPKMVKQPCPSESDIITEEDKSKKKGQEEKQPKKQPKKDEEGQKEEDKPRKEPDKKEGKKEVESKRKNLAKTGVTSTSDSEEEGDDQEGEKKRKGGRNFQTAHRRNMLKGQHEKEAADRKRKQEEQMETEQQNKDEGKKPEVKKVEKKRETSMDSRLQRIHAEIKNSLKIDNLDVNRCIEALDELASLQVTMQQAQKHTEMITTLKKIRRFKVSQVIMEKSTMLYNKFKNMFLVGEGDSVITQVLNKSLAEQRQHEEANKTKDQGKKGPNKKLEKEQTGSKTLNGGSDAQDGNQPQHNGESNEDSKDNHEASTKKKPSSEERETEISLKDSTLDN
# MutL5, sequence (O75475 whole entry R194A/G195A/R196A): as the sequence (O75475 whole entry R180A/G181A/R182A/R194A/G195A/R196A) above, with A180R, A181G, A182R counted along it
# MutL4, sequence (O75475 whole entry R180A/G181A/R182A): as the sequence (O75475 whole entry R180A/G181A/R182A/R194A/G195A/R196A) above, with A194R, A195G, A196R counted along it
binder,measurement,setting,value
B1,binding signal,LEDGF/p75 wild type [1],100 % of WT stably bound
same,binding signal,MutL5,~13 % of WT stably bound
same,binding signal,MutL4,~45 % of WT stably bound
same,binding signal,MutL3,~7 % of WT stably bound
B2,binding result,LEDGF/p75 wild type [2],binds
same,binding result,LEDGF/p75 93-226,binds
B3,binding result,LEDGF/p75 wild type [3],binds
B4,binding result,[4],no binding
same,binding result,[5],no binding
same,binding result,LEDGF/p75 wild type [6],binds
B5,binding result,LEDGF/p75 wild type [2],binds
same,binding result,LEDGF/p75 93-226,binds
B6,binding result,LEDGF/p75 wild type [3],binds
